Variants at the floor of the assay were thinned out.
B1: TPR 5TU (parent)
chain: GGAUCUUCUCGAUCUAACAAAAAAGACAAAUCUGCCACAAAGCUUGAGAGCAUCUUCGGAUGCAGAGGCGGCAGCCUUCGGUGGCGCGAUAGCGCCAACGUUCUCAACUAUGACACGCAAAACGCGUGCUCCGUUGAAUGGAGUUUAUCAUG

Variants of: B1
Test: polymerase ribozyme fitness, log enrichment relative to wild type (log ratio); higher = more active; in vitro selection for triplet polymerase activity
Procedure, shortened: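 Fitness is a logarithmic measure of how a genotype enriched relative to the wild type, with replicate averages weighted by inverse variance. The logarithm uses base 2, and enrichment came from Illumina sequencing of input and output libraries. Those libraries were PCR-built, transcribed mutants of each subunit of a heterodimeric triplet polymerase ribozyme, passed through one triplicate in vitro selection round that included frozen incubation at −7 °C, gel excision of extended constructs and streptavidin-bead capture. Genotypes were kept only if they had ≥10 input reads and ≥1 read per output.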

Variant | polymerase ribozyme fitness (log ratio)
C54U A73G G83U C95G G100U U135A | ≤ -4.2
U53C U55A C99U U111C | ≤ -4.2
U55A U146A | -0.393
U55A U146G | -0.637
U55G U56A C93A C114A | ≤ -4.2
U55C G70A | -3.5
U53G A73C G83U G117U | ≤ -4.2
C54U G59C A60U A66C | ≤ -4.2
U55A U139A | -4.05
C54G U55A G58A C99G C132A | ≤ -4.2
U55G G83C U135A G136A C149A | ≤ -4.2
U55A A91U G136A | ≤ -4.2
C54G C95G | -2.56
U55A G83A G124A | -0.748
U55A G83A | -0.501
C54U G71A A97U C105U A106C | ≤ -4.2
C54A A115C | -1.87
C54A G83U | -1.19
C54U C75U G84C A98U A113G C129U | ≤ -4.2
C54A C116G | -0.685
U55G G92C | -0.157

Variant | polymerase ribozyme fitness (log ratio)
U55G G92A | -3.13
C54G A97C G124A | -0.735
C54U C72U A91U C95G A98C C103A A119G A121G | ≤ -4.2
U55A C93G G143A | -3.93
C54A U144A | -1.74
C54U C76U C123A U139G U146C A150C | ≤ -4.2
U55A A60C G62A G81A C85U G133C | ≤ -4.2
U55A C69G U146A | -3.62
C54U U56A A60U G70U A115G A150C | ≤ -4.2
U53A U148A | -3.17
U53A U148C | -3.4
U55G C75G C76G G84U C118A U139C | ≤ -4.2
C54A U55G A107U U109C G117A C118U A121C | ≤ -4.2
U53G C54G C85A U134A | ≤ -4.2
U55A G70C G92U A119U | -3.25
C54G G59A C76A C85G A121C C123A U127G G140C G143U A150C | ≤ -4.2
C54U A91C G92U C105U G133U | ≤ -4.2
C54U C69G C85G | -3.9
C54U C95U A98G A142U | -1.61
U55A U56A U78C G83U A89U | -0.955
U53A U61C C79G A115U A150U | ≤ -4.2

Variant | polymerase ribozyme fitness (log ratio)
C54A C96U A113G | -3.11
U55A C85A G141C | -1.86
U55C C93G | -3.57
U53G U55A | -1.92
U55A C87U C93U | -4.13
C54A A91U U109C G140U U146C | ≤ -4.2
C54U G71C C116U G136A U146C | -3.51
C54G U55A G58U | 0.0801
C54U A64G C116G U139G | ≤ -4.2
C54G A89U A147C | -2.1
U53G C125U | -1.66
U55A G59A C75U G92U C99G C129G U139G | ≤ -4.2
U55A C93A | -2.96
U55G C69U U78A A91U C93U G141A | ≤ -4.2
U53A U82G G100A | ≤ -4.2
C54U C96G | -0.994
C54U C96U | -0.41
U53G C54G C96G C114U | ≤ -4.2
U55A C63U C85U C105U | 0.719
C54U G83C C85G A138G | ≤ -4.2
U53G C76A U134A | ≤ -4.2

Variant | polymerase ribozyme fitness (log ratio)
C54U C93A A110G A137G G140C | -4.1
C54U U104G | -1.21
U53C C118U C129G G141A | ≤ -4.2
U53C C72A U139C A150G | ≤ -4.2
C54G G59C G83U C87U G94A U102C U148G | ≤ -4.2
C54U A122U | 0.0261
U55A G62U C63G C87U A98U A120U C149G | ≤ -4.2
U55A U56A A66C G70C C108U | ≤ -4.2
C54A C87G A98G | ≤ -4.2
C54G G140U | -3.63
U55A G62A C96U | -2.14
C54U G84U | -2.22
C54A U61A C93G C149G | ≤ -4.2
U55A U82G C96G C116U G140C | -4.17
C54U U77G A121C | ≤ -4.2
C54U G58A A64C G71A | ≤ -4.2
U55A G81C G84U C116A | -2.11
U53C G58A C99G | -0.95
U55C C72U A150U | 0.059
C54A U56G C95A A120G | -1.33
